This note sets out measurements from paper PMC11783875.

Experiment [1] addresses H3-PsbS (PsbS with the H3 motif I74, Y75, E76 deleted) (Arabidopsis thaliana) (UniProt Q9XF91). The experiment in a line: cross-linking; isolated thylakoids (60 ug Chl) in the light state (700 umol photons m^-2 s^-1); 0.1 mM DTSSP for 1 min in reaction buffer pH 8.0; SDS-PAGE and western blot with PsbS antibody; densitometry of dimer against total PsbS. (In western blotting, separated proteins are transferred to a membrane and probed.)

Experiment [2] has the same target. As to the kind of experiment: cross-linking; isolated thylakoids (60 ug Chl) in the recovery-2 state (darkness after illumination); 0.1 mM DTSSP for 1 min in reaction buffer pH 8.0; SDS-PAGE and western blot with PsbS antibody; densitometry of dimer against total PsbS.
Experiment [3] concerns the target E69QE173Q-PsbS (Arabidopsis thaliana). As to the kind of experiment: cross-linking; isolated thylakoids (60 ug Chl) in the light state (700 umol photons m^-2 s^-1); 0.1 mM DTSSP for 1 min in reaction buffer pH 8.0; SDS-PAGE and western blot with PsbS antibody; densitometry of dimer against total PsbS.
For experiment [4] the target is unchanged. The experiment in a line: cross-linking; isolated thylakoids (60 ug Chl) in the recovery-1 state (darkness after illumination); 0.1 mM DTSSP for 1 min in reaction buffer pH 8.0; SDS-PAGE and western blot with PsbS antibody; densitometry of dimer against total PsbS.
Experiment [5] has the same target. As to the kind of experiment: cross-linking; isolated thylakoids (60 ug Chl) in the recovery-2 state (darkness after illumination); 0.1 mM DTSSP for 1 min in reaction buffer pH 8.0; SDS-PAGE and western blot with PsbS antibody; densitometry of dimer against total PsbS.
The target is the same in experiment [6]. As to the kind of experiment: cross-linking; isolated thylakoids (60 ug Chl) in the dark-adapted state; 0.1 mM DTSSP for 1 min in reaction buffer pH 8.0; SDS-PAGE and western blot with PsbS antibody; densitometry of dimer against total PsbS.
The target in experiment [7] is T1, PsbS protein (wild type, Arabidopsis thaliana) (Arabidopsis thaliana (endogenous in wild-type thylakoids)), Q9XF91.
T1 chain: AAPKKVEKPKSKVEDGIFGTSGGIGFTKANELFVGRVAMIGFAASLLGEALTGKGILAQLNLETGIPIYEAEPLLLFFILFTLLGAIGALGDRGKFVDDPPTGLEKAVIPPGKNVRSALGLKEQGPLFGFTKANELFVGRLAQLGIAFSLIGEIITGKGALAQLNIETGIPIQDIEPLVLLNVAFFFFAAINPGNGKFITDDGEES
The description is as above. To be noted: remark: other sources report otherwise.

For experiment [8], the target named is T1, PsbS protein (wild type, Arabidopsis …). The experiment in a line: cross-linking; isolated thylakoids (60 ug Chl) in the recovery-1 state (darkness after illumination); 0.1 mM DTSSP for 1 min in reaction buffer pH 8.0; SDS-PAGE and western blot with PsbS antibody; densitometry of dimer against total PsbS. To be noted: remark: other sources report otherwise.

The target is the same in experiment [9]. As to the kind of experiment: cross-linking; isolated thylakoids (60 ug Chl) in the recovery-2 state (darkness after illumination); 0.1 mM DTSSP for 1 min in reaction buffer pH 8.0; SDS-PAGE and western blot with PsbS antibody; densitometry of dimer against total PsbS. The following applies: remark: other sources report otherwise.
The target is the same in experiment [10]. As to the kind of experiment: cross-linking; isolated thylakoids (60 ug Chl) in the light state (700 umol photons m^-2 s^-1); 0.1 mM DTSSP for 1 min in reaction buffer pH 8.0; SDS-PAGE and western blot with PsbS antibody; densitometry of dimer against total PsbS. The following applies: remark: other sources report otherwise.

In the case of “H3-PsbS (PsbS with the H3 motif I74, Y75, E76 deleted) (from UniProt Q9XF91 60-265) (natural protein)”, the dimer-to-monomer transition, percent lower than the WT (% lower than WT) in experiment [1] came to 50.8. Also, the total recovery to PsbS dimers, percent of the WT level (% of the WT level) in experiment [2] worked out at 62.6.

For E69QE173Q-PsbS (natural protein), the cross-linked PsbS dimer content relative to total PsbS in experiment [3] was found to be 18.6%; in experiment [4], 21.4%; in [5], 25.6%; in [6], 21.7%.

B1: PsbS protein (wild type, Arabidopsis thaliana), Q9XF91 60-265 (natural protein)
chain: AAPKKVEKPKSKVEDGIFGTSGGIGFTKANELFVGRVAMIGFAASLLGEALTGKGILAQLNLETGIPIYEAEPLLLFFILFTLLGAIGALGDRGKFVDDPPTGLEKAVIPPGKNVRSALGLKEQGPLFGFTKANELFVGRLAQLGIAFSLIGEIITGKGALAQLNIETGIPIQDIEPLVLLNVAFFFFAAINPGNGKFITDDGEES
On to B1, for which the cross-linked PsbS dimer content relative to total PsbS stood at 44.9% in experiment [7], 39.5% in experiment [8], 50.4% in experiment [9] and 31.7% in experiment [10].
